According to US20090221691A1 (UNIVERSITY OF ROCHESTER, published 2009):

Biological target: T1, biotinylated Gβ1γ2, wild-type (BAP-rat Gβ1 with Gγ2) (rat, UniProt P54311 1-340; P63212 2-68, biotin on the lysine acceptor residue of the BAP)
T1 construct: immobilized on streptavidin in the assays; also called b-βγ; b-Gβ1γ2; not shown: 20 amino acid biotin acceptor peptide (BAP) fused to the N-terminus
Assay: flow cytometry competition, blocking Gα-Gβγ interactions
Experimental: Assays were used to determine peptide effects on Gα-Gβγ interactions included competition and dissociation assays (Ghosh, et al. (2003) supra). […] The bead-associated fluorescence was then recorded in a BD Biosciences FACSCALIBUR™ flow cytometer. Data was corrected for background fluorescence and fit with a sigmoid dose response curve using Graph Pad Prism 4.

SIRKALNILAYPDYD (Free peptide) [SIRK(Gly10Ala)] was tested, and the IC50 was roughly 80 µM.
